Reference: patent US20210253725A1 (BIONTECH, published 2021)

T1: CD134 protein (His-tagged, Sino Biological Inc. 10481-H08H) (human, UniProt P43489 29-216)
T1 construct: bought protein coated on ELISA plates; also called OX40; TNFRSF4; not shown: His tag
T1 sequence (looked up): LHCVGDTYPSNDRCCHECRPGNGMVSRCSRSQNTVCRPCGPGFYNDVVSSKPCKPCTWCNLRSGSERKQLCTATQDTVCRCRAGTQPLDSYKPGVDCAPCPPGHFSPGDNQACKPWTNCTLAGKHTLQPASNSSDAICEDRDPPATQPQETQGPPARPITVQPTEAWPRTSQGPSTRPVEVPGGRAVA

T2: CD134 expressed on the cell surface of HT1080_OX40 cells (human, UniProt P43489 29-277)
T2 construct: whole, on cells; species not restated for the HT1080 transfectant
T2 sequence (looked up): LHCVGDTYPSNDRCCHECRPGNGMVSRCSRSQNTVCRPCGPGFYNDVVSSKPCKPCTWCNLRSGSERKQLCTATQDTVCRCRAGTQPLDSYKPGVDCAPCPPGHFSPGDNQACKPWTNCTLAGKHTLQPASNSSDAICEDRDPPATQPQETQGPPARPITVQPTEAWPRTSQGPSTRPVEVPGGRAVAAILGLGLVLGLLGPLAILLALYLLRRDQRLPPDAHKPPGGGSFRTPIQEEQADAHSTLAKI

B1: P018.S.12.A.A05 (antibody, V domains shown)
VH: QSLEESGGRLVTPGTPLTLTCTASGFSLSNYYINWVRQAPGKGLEWIGIIDKSGSAYYASWARGRFTISKTSTTVGLKIPSPTTEDTATYFCARGYGGYADHGLGLWGQGTLVTVSS
VL: DVVMTQTPASVSEPVGGTVTIKCQASQSIAGWLAWYQQKPGQPPKLLIYQASKLASGVPSRFSGSGSGTEYTLTISDLESDDAATYYCQCTYGSASGSNGFGGGTEVVVK
notes: V regions on human Ig constant parts; also called AB134_54
B2: P018.S.12.A.E02 (antibody, V domains shown)
VH: QSVEESGGRLVTPGTPLTLTCTASGFTLSSYYMGWVRQAPGKGLEWIGIIYPSGSAYYATWTKGRFTISRTSTTVDLKVTGPTTEDTATYFCARSTTSSLYYGYNLWGQGTLVTVSS
VL: DIVMTQTPASVEAAVGGTVTIKCQASASITNWLAWYQQKPGQPPKLLIYKASTLESGVPSRFKGSGSGTEFTLTISDLESADAASYYCQSNYGGGSDTSHTFGGGTGVVVK
notes: V regions on human Ig constant parts; also called AB134_73
B3: P018.S.11.A.H04 (antibody, V domains shown)
VH: QEQLEESGGDLVKPGASLTLTCTASGLSFSGSYWICWVRQAPGKGLEWIGCITAGISGSTYYASWAKGRFTISKTSSTTVTLQMTSLTAADTATYFCARERTGGWGDFNLWGPGTLVTVSS
VL: DVVMTQTPASVEAAVGGTVTIKCQASQSITTYLSWYQQKPGQPPKLLIYLASTLESGVPSRFKGSRSGTEYTLTISDLESADAATYYCQCTDGGINHWFWAFGGGTEVVVK
notes: V regions on human Ig constant parts; also called AB134_47
B4: P018.S.13.A.G06 (antibody, V domains shown)
VH: QSLEESGGGLVKPGASLTLTCKASGFDLSSYYYMCWVRQAPGKGLEWIGCFYTDDSANTWYATWAKGRFTISKTSSTTVTLQMTSLTAADTATYFCARDASGWYWFNLWGPGTLVTVSS
VL: AQVLTQTPSPVSAAVGGTVTISCQSSQSLHDDNALAWYQQKPGQPPKLLIYLASYLASGVPSRFKGSGSGTQFTLTISEVQSDDAATYYCQGAYSGDNNSFGGGTEVVVK
notes: V regions on human Ig constant parts; also called AB134_92
B5: P018.S.12.A.A02 (antibody, V domains shown)
VH: QSLEESGGRLVTPGTPLTLTCTASGFSLSTYYMTWVRQAPGKGLEWIGDIYVRGGARYANWAKGRFTISRTSTTVDLRITSPTTEDTATYFCAREGLSLWGQGTLVTVSS
VL: AQVLTQTASPVSAAVGGTVTINCQSSQSVYKNNRLAWYQQKPGQPPKLLIYETSKLESGVSSRFKGSGSGTQFTLTISGVQSDDAATYYCLGGYDCGSADCNAFGGGTEVVVK
notes: V regions on human Ig constant parts; also called AB134_51
B6: P018.S.11.A.E05 (antibody, V domains shown)
VH: QSLEESGGRLVTPGTPLTLNCTASGFSLSAYWMGWVRQAPGKGLEWIGIIYATGSTYYTTWAKGRFTISRTSTTVDLKMTSPTTEDTATYFCGRGDGYESLNLWGPGTLVTVSS
VL: AQVLTQTPSSVSAAVGGTVTINCQSSQSVYSNNLLSWYQQKPGQPPKRLIYGASTLDSGVSSRFKGSGSGTQFTLTISGMQSDDAATYYCLGYYSGGIYVFGGGTEVVVK
notes: V regions on human Ig constant parts; also called AB134_36
B7: P018.S.04.A.E01 (antibody, V domains shown)
VH: QSVEESGGRLVTPGTPLTLTCTASGFSLSSSWMSWVRQAPGKGLEFIGFINTGGRAFYATWASGRFTISRTSTKVDLEITSPTSEDTATYFCVRGAAGYPEYDDGDLWGQGTLVTVSS
VL: AQVLTQTLSPVSAAVGGTVTINCQSSPSVYHNNWLSWFQKKPGQPPKLLIYEASKLASGVPPRFSGSGSGTQFTLTISGVQSDDAATYYCAGSFSDNIYTFGGGTAMVVK
notes: V regions on human Ig constant parts; also called AB134_10
B8: P018.S.12.A.A04 (antibody, V domains shown)
VH: QSVEESGGRLVTPGTPLTLTCTVSGIDLSSYAMSWVRQAPGKGLEYIGIISGSGNTYYASWAKGRFTISKTSTTVDLKISSPTTEDTATYFCCRGDPSYSIDGFDPWGPGTLVTVSS
VL: AAVLTQTPSPVSAAVGGTVTINCQSSQSVYNNNDLAWYQQKPGQPPKLLIYRASNLASGVPSRFSGSGSGTQFTLTISGVQSGDAATYYCLGAWDDDADTWAFGGGTEVVVE
notes: V regions on human Ig constant parts; also called AB134_53

Legend:
[1] = biological target: T1, CD134 protein (His-tagged, Sino …); assay: ELISA, coated His-tagged CD134
[2] = biological target: T2, CD134 expressed on the cell surface of …; assay: HT1080_OX40 cells, imaging
[3] = biological target: T2, CD134 expressed on the cell surface of …; assay: cell-based or functional assay
Note: test concentration or dose not given here.

| Binder | ELISA [abs. corr.] [1] | Cellular binding assay [RFU] [2] | Functional assay Cross-linked by F(ab′)2 fragment IL-8 [3] | Functional assay IL-8 [3] |
| --- | --- | --- | --- | --- |
| B1 | 2.86 abs. corr. | 503 RFU | 1.53 abs. corr. | 0.267 abs. corr. |
| B2 | 2.59 abs. corr. | 497 RFU | 1.63 abs. corr. | 0.355 abs. corr. |
| B3 | 2.65 abs. corr. | 382 RFU | 1.61 abs. corr. | 0.61 abs. corr. |
| B4 | 0.002 abs. corr. | 0 RFU | 1.58 abs. corr. | -0.114 abs. corr. |
| B5 | 1.58 abs. corr. | 502 RFU | 1.57 abs. corr. | 0.145 abs. corr. |
| B6 | 1.66 abs. corr. | 407 RFU | 1.42 abs. corr. | -0.265 abs. corr. |
| B7 | 2.88 abs. corr. | 22 RFU | 1.41 abs. corr. | 0.084 abs. corr. |
| B8 | 1.99 abs. corr. | 514 RFU | 1.4 abs. corr. | -0.007 abs. corr. |
